Measurements as given in patent publication US20250333531A1.

Assays:
human CD37 (human) = human CD37 (human) (UniProt P11049); assay: flow cytometry on Ramos cells, isotype control, MFI normalised to chHH1-DOTA (blank supernatant 28.3%)
[1] = biological target: biotinylated truncated soluble human FcγRIIa-R131 (human) (UniProt P12318); assay: ELISA: IgG coated at 10000-4.5 ng/ml, biotinylated truncated soluble human FcγRIIa-R131 250 ng/ml pre-complexed with AP-streptavidin, absorbance 405 nm
[2] = biological target: biotinylated truncated soluble human FcγRIIIa-V158 (human) (UniProt P08637); assay: ELISA: IgG coated at 10000-4.5 ng/ml, biotinylated truncated soluble human FcγRIIIa-V158 250 ng/ml pre-complexed with AP-streptavidin, absorbance 405 nm
[3] = biological target: biotinylated truncated soluble human FcγRIIb (human) (UniProt P31994); assay: ELISA: IgG coated at 10000-4.5 ng/ml, biotinylated truncated soluble human FcγRIIb 250 ng/ml pre-complexed with AP-streptavidin, absorbance 405 nm
[4] = biological target: biotinylated soluble human FcRn (human) (UniProt P55899); assay: ELISA: IgG coated at 1000-0.45 ng/ml, biotinylated soluble human FcRn 250 ng/ml pre-complexed with AP-streptavidin, pH 7.4, absorbance 405 nm
[5] = biological target: biotinylated truncated soluble human FcγRI (human) (UniProt P12314); assay: ELISA: IgG coated at 10000-4.5 ng/ml, biotinylated truncated soluble human FcγRI 250 ng/ml pre-complexed with AP-streptavidin, absorbance 405 nm
[6] = biological target: FcγRIIIa-V158 on Promega Jurkat effector cells (UniProt P08637); assay: cell-based or functional assay
[7] = biological target: biotinylated truncated soluble human FcγRIIa-H131 (human) (UniProt P12318); assay: ELISA: IgG coated at 10000-4.5 ng/ml, biotinylated truncated soluble human FcγRIIa-H131 250 ng/ml pre-complexed with AP-streptavidin, absorbance 405 nm
CD20 [8] = biological target: CD20 (UniProt P11836); assay: flow cytometry on CLL patient sample CLL187, FITC-rituximab at 10 µg per 10^6 cells, median fluorescence intensity, background corrected
CD20 [9] = biological target: CD20 (UniProt P11836); assay: flow cytometry on CLL patient sample CLL177, FITC-rituximab at 10 µg per 10^6 cells, median fluorescence intensity, background corrected
CD20 [10] = biological target: CD20 (UniProt P11836); assay: flow cytometry, FITC-labelled antibody on Daudi and SU-DHL-6 cells

Chain of CD20 (P11836 whole entry): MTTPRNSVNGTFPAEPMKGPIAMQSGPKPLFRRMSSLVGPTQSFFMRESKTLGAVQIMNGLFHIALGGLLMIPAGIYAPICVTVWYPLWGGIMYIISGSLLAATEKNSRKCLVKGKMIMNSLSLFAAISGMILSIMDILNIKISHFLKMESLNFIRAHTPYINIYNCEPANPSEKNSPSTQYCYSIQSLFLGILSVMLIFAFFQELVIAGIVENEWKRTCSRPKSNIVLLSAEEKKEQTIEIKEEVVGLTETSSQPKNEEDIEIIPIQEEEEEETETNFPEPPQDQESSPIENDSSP
Chain of biotinylated truncated soluble human FcγRI (human) (P12314 16-292): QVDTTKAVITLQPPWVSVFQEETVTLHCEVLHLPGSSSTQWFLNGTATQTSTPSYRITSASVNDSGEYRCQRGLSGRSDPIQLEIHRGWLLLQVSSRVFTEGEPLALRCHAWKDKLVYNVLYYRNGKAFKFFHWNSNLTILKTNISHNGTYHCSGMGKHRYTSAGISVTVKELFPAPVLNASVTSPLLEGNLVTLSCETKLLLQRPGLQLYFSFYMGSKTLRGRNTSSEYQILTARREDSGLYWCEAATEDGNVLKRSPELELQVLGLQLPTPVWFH
Chain of biotinylated truncated soluble human FcγRIIa-H131 (human) (P12318 34-217): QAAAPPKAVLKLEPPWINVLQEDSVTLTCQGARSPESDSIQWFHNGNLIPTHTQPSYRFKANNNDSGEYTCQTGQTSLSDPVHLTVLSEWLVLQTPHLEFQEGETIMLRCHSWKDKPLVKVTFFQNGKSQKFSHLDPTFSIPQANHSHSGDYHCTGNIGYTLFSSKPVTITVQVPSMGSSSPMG
Chain of human CD37 (human) (P11049 whole entry, the tested form may be a part): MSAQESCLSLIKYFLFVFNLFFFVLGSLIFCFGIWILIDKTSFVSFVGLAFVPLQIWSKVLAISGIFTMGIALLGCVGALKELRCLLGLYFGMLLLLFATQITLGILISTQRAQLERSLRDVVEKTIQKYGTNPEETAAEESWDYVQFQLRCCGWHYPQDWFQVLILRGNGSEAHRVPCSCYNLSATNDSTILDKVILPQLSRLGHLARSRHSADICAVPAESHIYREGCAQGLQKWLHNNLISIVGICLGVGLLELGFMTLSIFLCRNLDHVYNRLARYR
Chain of biotinylated truncated soluble human FcγRIIb (human) (P31994 43-217): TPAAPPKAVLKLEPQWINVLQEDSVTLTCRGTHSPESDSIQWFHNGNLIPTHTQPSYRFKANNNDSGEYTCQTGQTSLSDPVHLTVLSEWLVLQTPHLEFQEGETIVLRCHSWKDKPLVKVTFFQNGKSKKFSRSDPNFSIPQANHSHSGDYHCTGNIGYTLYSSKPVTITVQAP
Chain of biotinylated truncated soluble human FcγRIIa-R131 (human) (P12318 34-217 H167R): as the sequence (P12318 34-217) above, with H134R counted along it
Chain of biotinylated soluble human FcRn (human) (P55899 24-297 limits assumed, chain 1 of 2): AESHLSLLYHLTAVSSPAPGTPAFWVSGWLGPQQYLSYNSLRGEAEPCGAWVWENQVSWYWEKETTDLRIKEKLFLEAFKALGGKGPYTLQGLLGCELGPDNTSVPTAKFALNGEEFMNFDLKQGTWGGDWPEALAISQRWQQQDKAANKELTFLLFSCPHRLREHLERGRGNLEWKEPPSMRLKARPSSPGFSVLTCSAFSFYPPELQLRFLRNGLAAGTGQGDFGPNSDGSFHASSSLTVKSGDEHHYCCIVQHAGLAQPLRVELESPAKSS
Chain of biotinylated soluble human FcRn (human) (chain, as listed by the source limits assumed, chain 2 of 2): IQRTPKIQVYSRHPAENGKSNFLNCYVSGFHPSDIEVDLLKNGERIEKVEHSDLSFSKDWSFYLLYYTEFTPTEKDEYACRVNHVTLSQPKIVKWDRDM

isotype control antibody showed a Normalized average binding (%) (human CD37 (human)) of 29.5%.
In the case of obinutuzumab (antibody), the EC50 (read off the curve) [1] is reported as 2 µg/mL, the EC50 (read off the curve) [2] is reported as 1 µg/mL and the EC50 (read off the curve) [3] is reported as 2 µg/mL. For the same substance, the EC50 (read off the curve) [4] was 0.06 µg/mL, the EC50 (read off the curve) [5] was 0.6 µg/mL and the average potency of the ADCC response (Example 13) [6] was 1.1 nM. The EC50 (read off the curve) [7] was 0.6 µg/mL.
Substance “Anti-CD20 (10F381 rituximab) FITC-conjugated rabbit/human chimeric Ab (antibody)” has an Avg. MFI (a.u.) (CD20 [8]) of 68 a.u, an Avg. MFI (a.u.) (CD20 [9]) of 52 a.u and a saturation titer (µg per 10^6 cells) (CD20 [10]) of 10.
